The record followed here is article PMC11879086, “Identification and characterization of a human MORC2 DNA binding region that is required for gene silencing” (Nucleic Acids Research, 2024).

Series [1] addresses T1, MORC2 dephosphorylated (wild-type) (Homo sapiens) (UniProt Q9Y6X9).
T1 sequence: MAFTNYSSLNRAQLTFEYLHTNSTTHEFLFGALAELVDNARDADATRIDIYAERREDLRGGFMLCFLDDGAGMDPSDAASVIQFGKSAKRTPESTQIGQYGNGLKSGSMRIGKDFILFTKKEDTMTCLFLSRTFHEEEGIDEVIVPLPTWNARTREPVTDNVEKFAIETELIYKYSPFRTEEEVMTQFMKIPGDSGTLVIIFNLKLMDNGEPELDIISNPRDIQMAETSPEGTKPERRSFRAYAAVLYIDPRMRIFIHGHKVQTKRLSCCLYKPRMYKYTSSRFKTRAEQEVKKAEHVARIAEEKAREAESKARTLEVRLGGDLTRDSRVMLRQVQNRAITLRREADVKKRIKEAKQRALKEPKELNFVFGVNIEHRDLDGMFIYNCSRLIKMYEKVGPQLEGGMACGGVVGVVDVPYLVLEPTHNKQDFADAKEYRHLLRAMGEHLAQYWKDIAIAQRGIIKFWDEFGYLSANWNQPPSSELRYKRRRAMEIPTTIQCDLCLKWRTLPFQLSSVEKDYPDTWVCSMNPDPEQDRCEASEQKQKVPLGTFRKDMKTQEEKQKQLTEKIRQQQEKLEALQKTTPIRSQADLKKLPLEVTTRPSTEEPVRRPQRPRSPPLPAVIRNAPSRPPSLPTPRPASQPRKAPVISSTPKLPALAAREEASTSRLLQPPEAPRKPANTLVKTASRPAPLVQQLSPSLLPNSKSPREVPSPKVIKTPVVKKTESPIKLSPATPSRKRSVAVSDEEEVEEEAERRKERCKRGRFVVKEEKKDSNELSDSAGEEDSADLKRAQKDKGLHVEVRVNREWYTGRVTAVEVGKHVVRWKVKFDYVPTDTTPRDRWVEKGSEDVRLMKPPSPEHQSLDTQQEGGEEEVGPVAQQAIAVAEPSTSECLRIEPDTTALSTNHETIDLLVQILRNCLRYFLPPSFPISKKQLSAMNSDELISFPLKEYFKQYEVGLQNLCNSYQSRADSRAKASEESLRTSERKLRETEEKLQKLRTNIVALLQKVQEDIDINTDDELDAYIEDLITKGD
The series can be described thus: fluorescence anisotropy. The conditions noted are these: apo; FA/EMSA: 50 mM NaCl, 3 mM MgCl2, 20 mM Na-HEPES pH 7.4, 1 mM TCEP, 10% glycerol, 0.025 mM ZnCl2, 50 ug/ml BSA, room temperature; 1 nM nucleic acid (FA) or 20 nM. (In fluorescence polarisation assays a small probe gives low polarisation when free and higher when bound to something large.)

Series [2] concerns MBP-MORC2 wild-type (Homo sapiens). Kind of series: pull-down. The conditions noted are these: FA/EMSA: 50 mM NaCl, 3 mM MgCl2, 20 mM Na-HEPES pH 7.4, 1 mM TCEP, 10% glycerol, 0.025 mM ZnCl2, 50 ug/ml BSA, room temperature; 1 nM nucleic acid (FA) or 20 nM.
Series [3] concerns the target T2, MORC2 dephosphorylated (wild-type) (Homo sapiens, UniProt Q9Y6X9 1-1032).
T2 sequence: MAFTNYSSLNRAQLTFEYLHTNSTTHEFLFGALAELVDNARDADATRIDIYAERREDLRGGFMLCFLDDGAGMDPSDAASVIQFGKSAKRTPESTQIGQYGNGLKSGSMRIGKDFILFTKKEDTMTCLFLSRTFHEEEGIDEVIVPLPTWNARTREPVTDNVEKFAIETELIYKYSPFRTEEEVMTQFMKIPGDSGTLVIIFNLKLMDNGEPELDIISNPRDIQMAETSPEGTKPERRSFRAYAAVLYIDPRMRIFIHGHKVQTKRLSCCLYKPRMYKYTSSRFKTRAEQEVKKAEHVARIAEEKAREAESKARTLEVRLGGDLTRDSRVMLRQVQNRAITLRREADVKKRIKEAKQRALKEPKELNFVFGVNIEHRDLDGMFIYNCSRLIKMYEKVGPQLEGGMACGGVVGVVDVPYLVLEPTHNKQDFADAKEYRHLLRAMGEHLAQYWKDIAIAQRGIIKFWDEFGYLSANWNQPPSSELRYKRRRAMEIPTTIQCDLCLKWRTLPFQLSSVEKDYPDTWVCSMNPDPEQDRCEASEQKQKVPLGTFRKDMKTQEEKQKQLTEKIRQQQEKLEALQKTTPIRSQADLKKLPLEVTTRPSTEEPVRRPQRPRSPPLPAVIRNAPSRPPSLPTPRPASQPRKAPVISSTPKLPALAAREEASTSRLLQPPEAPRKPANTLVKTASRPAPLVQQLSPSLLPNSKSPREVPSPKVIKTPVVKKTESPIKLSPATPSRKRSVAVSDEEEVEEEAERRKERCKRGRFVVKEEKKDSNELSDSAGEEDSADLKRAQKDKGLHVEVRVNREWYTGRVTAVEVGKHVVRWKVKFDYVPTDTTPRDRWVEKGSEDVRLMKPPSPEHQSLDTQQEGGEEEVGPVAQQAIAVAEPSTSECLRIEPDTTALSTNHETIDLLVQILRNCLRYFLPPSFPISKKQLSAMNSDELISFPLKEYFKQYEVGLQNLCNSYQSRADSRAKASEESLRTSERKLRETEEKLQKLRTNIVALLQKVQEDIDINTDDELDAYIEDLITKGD
Kind of series: fluorescence anisotropy; apo ('5 or less'); FA/EMSA: 50 mM NaCl, 3 mM MgCl2, 20 mM Na-HEPES pH 7.4, 1 mM TCEP, 10% glycerol, 0.025 mM ZnCl2, 50 ug/ml BSA, room temperature; 1 nM nucleic acid (FA) or 20 nM DNA (EMSA). The note with it: protein: recombinant; tags: tag removed by TEV; chain copies: 2; label: 5'-6-FAM; blunt.

Series [4] addresses T2, MORC2 dephosphorylated (wild-type). The series can be described thus: fluorescence anisotropy; apo; FA/EMSA: 50 mM NaCl, 3 mM MgCl2, 20 mM Na-HEPES pH 7.4, 1 mM TCEP, 10% glycerol, 0.025 mM ZnCl2, 50 ug/ml BSA, room temperature; 1 nM nucleic acid (FA) or 20 nM DNA (EMSA). The note with it: protein: recombinant, tags: tag removed by TEV, chain copies: 2, label: 5'-6-FAM.
Series [5] has the same target. Kind of series: fluorescence anisotropy; apo; Hill slope 0.6; FA/EMSA: 50 mM NaCl, 3 mM MgCl2, 20 mM Na-HEPES pH 7.4, 1 mM TCEP, 10% glycerol, 0.025 mM ZnCl2, 50 ug/ml BSA, room temperature; 1 nM nucleic acid (FA) or 20 nM DNA (EMSA). The conditions noted are these: protein: recombinant; tags: tag removed by TEV; chain copies: 2; label: 5'-6-FAM on oligo 3; four-way junction of 4 strands.

Series [6] deals with the molecule itself. Kind of series: SEC-MALS; coiled coil 3, 1.5 mg/ml, 150 mM NaCl, 3 mM MgCl2, 20 mM Na-HEPES pH 7.4, 0.5 mM TCEP, 1.5% glycerol, 0.025 mM ZnCl2; Wyatt 010 column. In general terms: SEC sorts molecules by how far they enter the pores of the column.
Series [7] concerns the molecule itself. The series can be described thus: SEC-MALS; full-length MORC2, 2 mg/ml, 150 mM NaCl, 3 mM MgCl2, 20 mM Na-HEPES pH 7.4, 0.5 mM TCEP, 1.5% glycerol, 0.025 mM ZnCl2, without AMP-PNP; Wyatt 030 column.

A value given as a limit tells only on which side of the number the result lay.

As usually defined, the Kd is the free concentration of one partner at which half of the binding sites on the other are occupied at equilibrium, for simple one-to-one binding. “ATATCGATGTATATATCTGACACGTGCCTGGAGACTAGGGAGTAATCCCCTTGGCGGTTAAAACGCGGGGGACAGCGCGTACGTGCGTTTAAGCGGTGCTAGAGCTGTCTACGACCAATTGAGCGGCCTCGGCACCGGGATTCTGATAT (double strand) [Nucleosome on 2-601-2 DNA]” had a Kd in series [1] of 16 nM.
Consider pUC19 linear, for which the binding signal (fold less than circular) in series [2] was 30.

B1: High AT 35mer dsDNA (dsDNA)
DNA 1: CATCATCAAAGACCAAAAGTAGATAAAACCACAAA
DNA 2: TTTGTGGTTTTATCTACTTTTGGTCTTTGATGATG
Turning to B1, in series [3], the Kd was below 5 nM.

B2: 149 bp Widom 601 dsDNA (2-601-2) (dsDNA)
DNA 1: ATATCGATGTATATATCTGACACGTGCCTGGAGACTAGGGAGTAATCCCCTTGGCGGTTAAAACGCGGGGGACAGCGCGTACGTGCGTTTAAGCGGTGCTAGAGCTGTCTACGACCAATTGAGCGGCCTCGGCACCGGGATTCTGATAT
DNA 2: ATATCAGAATCCCGGTGCCGAGGCCGCTCAATTGGTCGTAGACAGCTCTAGCACCGCTTAAACGCACGTACGCGCTGTCCCCCGCGTTTTAACCGCCAAGGGGATTACTCCCTAGTCTCCAGGCACGTGTCAGATATATACATCGATAT
On to B2, for which, in series [3], the Kd is below 5 nM.
For the molecule AUAGGGUCCAUCAGAAUUCGGAUGAACUCGGUGUG (ssRNA) [Random 35mer ssRNA], the Kd in series [4] was 49 ± 6 nM.
On the same count and under the same terms, as for ATAGGGTCCATCAGAATTCGGATGAACTCGGTGTG (ssDNA) [Random 35mer ssDNA], the figure is 51 ± 9 nM.

B3: Cruciform DNA (structured_DNA)
DNA 1: CCCTATAACCCCTGCATTGAATTCCAGTCTGATAA
DNA 2: GTAGTCGTGATAGGTGCAGGGGTTATAGGG
DNA 3: AACAGTAGCTCTTATTCGAGCTCGCGCCCTATCACGACTA
DNA 4: TTTATCAGACTGGAATTCAAGCGCGAGCTCGAATAAGAGCTACTGT
In the case of B3, the Kd in series [5] came to 78 ± 12 nM.

B4: Random 25mer dsDNA (dsDNA)
DNA 1: TCCATCAGAATTCGGATGAACTCGG
DNA 2: CCGAGTTCATCCGAATTCTGATGGA
As to B4, the Kd in series [4] (blunt) came to 21 ± 2 nM.

B5: MORC2 coiled coil 3 (residues 900-1032) (domain or fragment, human, UniProt Q9Y6X9 900-1032, looked up)
chain: ALSTNHETIDLLVQILRNCLRYFLPPSFPISKKQLSAMNSDELISFPLKEYFKQYEVGLQNLCNSYQSRADSRAKASEESLRTSERKLRETEEKLQKLRTNIVALLQKVQEDIDINTDDELDAYIEDLITKGD
notes: also called CC3; isolated MORC2 C-terminus; source: E. coli BL21 (DE3) RIL, purified (HisTrap, TEV cleavage, S75 SEC); not shown: His6, N-terminal, cleaved
As usually defined, the stoichiometry N is a count of units in the complex or per binding partner. Turning to B5, in series [6], the “stoichiometry N” value amounted to 2.

B6: full-length human MORC2 (dephosphorylated, wild-type) (natural protein, UniProt Q9Y6X9 1-1032, looked up)
chain: MAFTNYSSLNRAQLTFEYLHTNSTTHEFLFGALAELVDNARDADATRIDIYAERREDLRGGFMLCFLDDGAGMDPSDAASVIQFGKSAKRTPESTQIGQYGNGLKSGSMRIGKDFILFTKKEDTMTCLFLSRTFHEEEGIDEVIVPLPTWNARTREPVTDNVEKFAIETELIYKYSPFRTEEEVMTQFMKIPGDSGTLVIIFNLKLMDNGEPELDIISNPRDIQMAETSPEGTKPERRSFRAYAAVLYIDPRMRIFIHGHKVQTKRLSCCLYKPRMYKYTSSRFKTRAEQEVKKAEHVARIAEEKAREAESKARTLEVRLGGDLTRDSRVMLRQVQNRAITLRREADVKKRIKEAKQRALKEPKELNFVFGVNIEHRDLDGMFIYNCSRLIKMYEKVGPQLEGGMACGGVVGVVDVPYLVLEPTHNKQDFADAKEYRHLLRAMGEHLAQYWKDIAIAQRGIIKFWDEFGYLSANWNQPPSSELRYKRRRAMEIPTTIQCDLCLKWRTLPFQLSSVEKDYPDTWVCSMNPDPEQDRCEASEQKQKVPLGTFRKDMKTQEEKQKQLTEKIRQQQEKLEALQKTTPIRSQADLKKLPLEVTTRPSTEEPVRRPQRPRSPPLPAVIRNAPSRPPSLPTPRPASQPRKAPVISSTPKLPALAAREEASTSRLLQPPEAPRKPANTLVKTASRPAPLVQQLSPSLLPNSKSPREVPSPKVIKTPVVKKTESPIKLSPATPSRKRSVAVSDEEEVEEEAERRKERCKRGRFVVKEEKKDSNELSDSAGEEDSADLKRAQKDKGLHVEVRVNREWYTGRVTAVEVGKHVVRWKVKFDYVPTDTTPRDRWVEKGSEDVRLMKPPSPEHQSLDTQQEGGEEEVGPVAQQAIAVAEPSTSECLRIEPDTTALSTNHETIDLLVQILRNCLRYFLPPSFPISKKQLSAMNSDELISFPLKEYFKQYEVGLQNLCNSYQSRADSRAKASEESLRTSERKLRETEEKLQKLRTNIVALLQKVQEDIDINTDDELDAYIEDLITKGD
notes: Cloned into vector 438-B (N-terminal His6-TEV) and into 438-C (N-terminal His6-MBP-TEV); Heterogeneous phosphorylation from insect cells was removed by phosphatase treatment; also called wild-type MORC2; full-length MORC2; not shown: His6, N-terminal, cleaved
Regarding B6, the “stoichiometry N” value in series [7] came out at 2.

B7: Random 65mer dsDNA (dsDNA)
DNA 1: ATTCTCCAGGGCGGCCGCGTATAGGGTCCATCAGAATTCGGATGAACTCGGTGTGAAGAAAGATC
DNA 2: GATCTTTCTTCACACCGAGTTCATCCGAATTCTGATGGACCCTATACGCGGCCGCCCTGGAGAAT
For B7, the Kd in series [3] is below 5 nM.

B8: Random 45mer dsDNA (dsDNA)
DNA 1: GCCGCGTATAGGGTCCATCAGAATTCGGATGAACTCGGTGTGAAG
DNA 2: CTTCACACCGAGTTCATCCGAATTCTGATGGACCCTATACGCGGC
Turning to B8, the Kd in series [4] (blunt) worked out at 11 ± 3 nM.
